According to a protein production outcome set (Wang et al. 2014):

Assay: label from the status in PepcDB records

Sequence | protein production
MLVLDVAARVWPFFLLVAAGVALSRLRLLDARMTQGLSAYVYWVGFPALLIHSLSRLGRPGPELWSGLAAYAAVGLAVMASLVVGGRALGWSRPERAGAAMAAGVGNSAFLAVPVTAAVLGAETARLVAGAIAADFVVLAAAGVGLLGWAAGRSVWRAMAQAFQNPVVIAALLGLLLALLNLALPQPLDRAVGLAAASGSPVGLVALGAALGLPQTEDEPGPRAGPVVLAALAKLLAFPLLVWLAIGLTPAPAEFRTGATLVAAAPTAVNVFIQTRAYGVWPRGAARIVALTTALAIVSLSLVAILLTARVS | failed
MASHELDYRILGESMQTVEIELDPGETVIAEAGAMNYMTGDIRFTARMGDGSDGSLLGKLWSAGKRKLGGESVFMTHFTNEGQGKQHVAFAAPYPGSVVAVDLDDVGGRLFCQKDSFLCAAYGTRVGIAFTKRLGAGFFGGEGFILQKLEGDGLVFVHAGGTLIRRQLNGETLRVDTGCLVAFTDGIDYDVQLAGGLKSMLFGGEGLLLTTLKGSGTVWLQSLPFSRLAGRIYDATFRAREEVRTNNG | not failed
MSRHPARTGEKTFFGHPFQLSTLFHIELWERFSFYGMQGILLIYLYYTADKGGLGIDKTLAGGIVGAYSGSVYLSTILGAWFADRVWGAEKTLFLSGIVVMLGHIVLAAAPGLYGLLIGLIFIALGSGGVKSTASSMVGALYEQDEMRPLRDAGFSIFYIAINIGGFLGPLLTGLLQENIGFHYGFGAAAVGMAFGLWRYSLGRKNLPHPTVPHPLSKGQGKTAAAVGITLIAALATAIKTGLVNLDNFSGILLSTVILAVIAYFARLLTNPRVSSDNKRHIIAYIPLFLTICMFWAVWFQIYTVATVYFDETVNRTIGSFTVPVAWKDSMQSLWVILFSGLMAAMWTKMGRKQPKTPLKFAMAVFVTGASFLGFVPFISSGTPMPIAVFALIVLAITIGELMISPIALSISTKIAPPLFKTQMVALNFLAFSLGFTLGGVLFEKGYQAGDEIGFYRLLFYIGAATGFLLLLLVPKLNKMLEGTD | failed
MDKPILKDSMKLFEALGTIKSRSMFGGFGLFADETMFALVVNNQLHIRADQQTSSDFETQGLKPYVYKKRGFPVVTKYYAISSELWESSDRLIEVAKKSLENAKLEKEQQASTKPNRLKDLPNLRLATERMLKKAGIDSVAQLEEEGALSAYKAIRDTHSTTVSLELLWALEGAINGTHWSVVPQSRREELMNGLS | not failed
MNVIYPLAVPKGRRLSCEVCEAPAERMCTACTVTYYCGPVHQKADWDSIHAKICQLLIPLRTTMPFYNSEEERQHGLQQLQRRQKHLIEFCYTVAQKYLFEGRHEDAVPAALHSLRFRMNVHGLSSVELVPAYLLLAEASLGLGRIVQAEEYLSQAQWTVLKSTDCSNATHSLLHRNLGLLYIAKKNLDEARYHLANDIYFASCAYGTEDIRTSGGYFHLANIFYGLKKMELADTLYTKVSEIWYTYLNSHYQALLEARSQQTDLLGKQFVNDTGLDEAQEAEAIRILTSTLIIQESTSTKAPQKSILILKTLSILYYLMLECSKAKEYAMKALSLAETYVSEEEQRFIQELLSVISAEEKQP | failed
MDPNTVSSFQVDCFLWHVRKRLADQELGDAPFLDRLRRDQKSLRGRGNTLGLDIETATRAGKQIVERILEEEPDEALKMPASRYLTDMTLEEMSRDWFMLMPKQKVAGSLCIKMDQAIMDKTIILKANFSVILDRLETLILLRAFTEEGAIVGEISPLPSLPGHTGEDVKNAIGVLIGGLEWNDNTVRVSETIQRFAWRSSDEDGRLPLPPNQKRKMARTIESEV | not failed
MPCVQAQYGSSPQGASPASQSYSYHSSGEYSSDFLTPEFVKFSMDLTNTEITATTSLPSFSTFMDNYSTGYDVKPPCLYQMPLSGQQSSIKVEDIQMHNYQQHSHLPPQSEEMMPHSGSVYYKPSSPPTPTTPGFQVQHSPMWDDPGSLHNFHQNYVATTHMIEQRKTPVSRLSLFSFKQSPPGTPVSSCQMRFDGPLHVPMNPEPAGSHHVVDGQTFAVPNPIRKPASMGFPGLQIGHASQLLDTQVPSPPSRGSPSNEGLCAVCGDNAACQHYGVRTCEGCKGFFKRTVQKNAKYVCLANKNCPVDKRRRNRCQYCRFQKCLAVGMVKEVVRTDSLKGRRGRLPSKPKSPQEPSPPSPPVSLISALVRAHVDSNPAMTSLDYSRFQANPDYQMSGDDTQHIQQFYDLLTGSMEIIRGWAEKIPGFADLPKADQDLLFESAFLELFVLRLAYRSNPVEGKLIFCNGVVLHRLQCVRGFGEWIDSIVEFSSNLQNMNIDISAFSCIAALAMVTERHGLKEPKRVEELQNKIVNCLKDHVTFNNGGLNRPNYLSKLLGKLPELRTLCTQGLQRIFYLKLEDLVPPPAIIDKLFLDTLPF | not failed
